# Test results taken from publication PMC11770335, “Transcriptome-scale analysis uncovers conserved residues in the hydrophobic core of the bacterial RNA chaperone Hfq required for small regulatory RNA stability”.
# What was measured:
# Conditions in all cases: protein: recombinant; chain copies: 6; single strand
# [1] = target: T1, Hfq G34A (Escherichia coli, UniProt P0A6X3 1-102, G34A); test: ITC; 5 mM MgCl2; N 0.83 RNA/hexamer; second weaker event offset; ITC: 20 mM Tris-HCl pH 7.5, 100 mM NaCl, 20 mM KCl, 30°C; plus 5 mM MgCl2 for U6; Hfq hexamer 10-18 µM in cell
# [2] = target: T2, Hfq WT (Escherichia coli, UniProt P0A6X3 1-102); test: ITC; 5 mM MgCl2; N 0.96 RNA/hexamer; second weaker event offset; ITC: 20 mM Tris-HCl pH 7.5, 100 mM NaCl, 20 mM KCl, 30°C; plus 5 mM MgCl2 for U6; Hfq hexamer 10-18 µM in cell
# [3] = target: T3, Hfq V22A (Escherichia coli, UniProt P0A6X3 1-102, V22A); test: ITC; 5 mM MgCl2; N 1.02 RNA/hexamer; second weaker event offset; ITC: 20 mM Tris-HCl pH 7.5, 100 mM NaCl, 20 mM KCl, 30°C; plus 5 mM MgCl2 for U6; Hfq hexamer 10-18 µM in cell
# [4] = target: T3, Hfq V22A; test: X-ray crystallography; one pA4 traced at distal face (Methods says proximal); 0.2 M LiSO4, 0.05 M zinc acetate, Bis-Tris pH 7.5; ITC: 20 mM Tris-HCl pH 7.5, 100 mM NaCl, 20 mM KCl, 30°C; plus 5 mM MgCl2 for U6; Hfq hexamer 10-18 µM in cell
# [5] = target: T1, Hfq G34A; test: ITC; no Mg2+ listed; N 0.75 RNA/hexamer; ITC: 20 mM Tris-HCl pH 7.5, 100 mM NaCl, 20 mM KCl, 30°C; plus 5 mM MgCl2 for U6; Hfq hexamer 10-18 µM in cell
# [6] = target: T2, Hfq WT; test: ITC; no Mg2+ listed; N 1.31 RNA/hexamer; ITC: 20 mM Tris-HCl pH 7.5, 100 mM NaCl, 20 mM KCl, 30°C; plus 5 mM MgCl2 for U6; Hfq hexamer 10-18 µM in cell
# [7] = target: T3, Hfq V22A; test: ITC; no Mg2+ listed; N 1.43 RNA/hexamer; ITC: 20 mM Tris-HCl pH 7.5, 100 mM NaCl, 20 mM KCl, 30°C; plus 5 mM MgCl2 for U6; Hfq hexamer 10-18 µM in cell
binder,measurement,setting,value
UUUUUU (ssRNA) [U6],Kd,[1],19.3 ± 8.3 nM
same,Kd,[2],42.2 ± 12.8 nM
same,Kd,[3],56.6 ± 7.5 nM
AAAA (ssRNA) [pA4],binding result,[4],binds
AAAAAAAAAAAAAAAAA (ssRNA) [A17],Kd,[5],26.3 ± 13.2 nM
same,Kd,[6],51.5 ± 18 nM
same,Kd,[7],10.5 ± 3.4 nM
